# Article PMC2688778 (Structure (London, England : 1993), 2009)
# T1: RecE564 S615A (Escherichia coli K12, UniProt P15032 564-866, S615A)
# T1 sequence: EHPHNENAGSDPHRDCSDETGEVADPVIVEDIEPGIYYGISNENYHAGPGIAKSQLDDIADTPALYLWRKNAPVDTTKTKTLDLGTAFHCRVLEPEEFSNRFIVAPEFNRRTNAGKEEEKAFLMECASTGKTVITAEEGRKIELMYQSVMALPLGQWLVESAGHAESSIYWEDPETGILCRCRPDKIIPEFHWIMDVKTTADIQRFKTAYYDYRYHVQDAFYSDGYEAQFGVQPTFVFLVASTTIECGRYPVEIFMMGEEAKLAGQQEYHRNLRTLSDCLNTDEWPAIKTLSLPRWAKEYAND
# T2: RecE564 R746A (Escherichia coli K12, UniProt P15032 564-866, R746A)
# T2 sequence: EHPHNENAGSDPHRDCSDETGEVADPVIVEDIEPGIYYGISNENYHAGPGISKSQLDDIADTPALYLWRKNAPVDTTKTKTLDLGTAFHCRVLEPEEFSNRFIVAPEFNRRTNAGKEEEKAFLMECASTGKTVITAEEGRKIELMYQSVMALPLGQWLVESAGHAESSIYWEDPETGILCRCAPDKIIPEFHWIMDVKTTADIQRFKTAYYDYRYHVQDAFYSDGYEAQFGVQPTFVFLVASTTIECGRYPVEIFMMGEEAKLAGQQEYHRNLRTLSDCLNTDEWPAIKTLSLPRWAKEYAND
# T3: RecE564 Y785A (Escherichia coli K12, UniProt P15032 564-866, Y785A)
# T3 sequence: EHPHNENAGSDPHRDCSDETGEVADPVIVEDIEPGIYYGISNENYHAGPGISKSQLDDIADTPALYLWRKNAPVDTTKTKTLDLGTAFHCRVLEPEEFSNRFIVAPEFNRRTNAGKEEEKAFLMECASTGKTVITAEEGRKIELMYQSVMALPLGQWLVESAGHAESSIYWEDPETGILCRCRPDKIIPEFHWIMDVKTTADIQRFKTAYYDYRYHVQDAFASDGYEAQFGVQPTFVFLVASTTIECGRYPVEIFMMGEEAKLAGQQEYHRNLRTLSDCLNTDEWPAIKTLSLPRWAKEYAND
# T4: RecE564 Q781A (Escherichia coli K12, UniProt P15032 564-866, Q781A)
# T4 sequence: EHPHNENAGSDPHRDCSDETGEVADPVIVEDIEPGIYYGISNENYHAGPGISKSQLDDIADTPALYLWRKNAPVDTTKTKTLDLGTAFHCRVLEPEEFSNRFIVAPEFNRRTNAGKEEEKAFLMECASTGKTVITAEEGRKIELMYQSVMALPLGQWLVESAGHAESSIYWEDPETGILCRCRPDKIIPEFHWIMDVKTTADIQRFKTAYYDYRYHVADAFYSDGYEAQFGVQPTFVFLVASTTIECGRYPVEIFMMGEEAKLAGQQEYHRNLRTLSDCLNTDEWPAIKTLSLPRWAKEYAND
# T5: RecE564 E657A (Escherichia coli K12, UniProt P15032 564-866, E657A)
# T5 sequence: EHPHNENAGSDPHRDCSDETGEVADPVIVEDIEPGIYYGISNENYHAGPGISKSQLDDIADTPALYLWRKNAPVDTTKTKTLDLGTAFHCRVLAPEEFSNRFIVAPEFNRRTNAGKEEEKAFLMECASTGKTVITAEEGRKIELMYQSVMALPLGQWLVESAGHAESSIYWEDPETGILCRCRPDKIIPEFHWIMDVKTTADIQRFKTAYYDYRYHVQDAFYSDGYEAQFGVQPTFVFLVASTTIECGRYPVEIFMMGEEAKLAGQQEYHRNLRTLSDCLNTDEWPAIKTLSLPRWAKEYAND
# T6: RecE564 del858-866 (Escherichia coli K12, UniProt P15032 564-857, del858-866)
# T6 sequence: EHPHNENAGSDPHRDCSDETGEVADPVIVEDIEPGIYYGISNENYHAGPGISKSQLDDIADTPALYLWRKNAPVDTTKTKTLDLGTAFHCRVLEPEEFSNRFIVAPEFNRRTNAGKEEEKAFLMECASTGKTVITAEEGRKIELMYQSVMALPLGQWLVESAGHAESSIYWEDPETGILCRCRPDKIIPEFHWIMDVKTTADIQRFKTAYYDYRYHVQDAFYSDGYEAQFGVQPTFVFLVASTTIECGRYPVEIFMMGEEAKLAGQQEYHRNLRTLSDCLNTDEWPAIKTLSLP
# B1: F25 (dsDNA)
# DNA 1: TAGAGCTTAATTGCTGAATCTGGTG
# DNA 2: CACCAGATTCAGCAATTAAGCTCTA
# Assays:
# Assay in all cases: fluorescence anisotropy
# [1] = molecular target: T1, RecE564 S615A
# [2] = molecular target: T2, RecE564 R746A
# [3] = molecular target: T3, RecE564 Y785A
# [4] = molecular target: T4, RecE564 Q781A
# [5] = molecular target: T5, RecE564 E657A
# [6] = molecular target: T6, RecE564 del858-866
binder,measurement,setting,value
B1,Kd,[1],100 ± 4 nM
same,Kd,[2],90 ± 10 nM
same,Kd,[3],98 ± 9 nM
same,Kd,[4],70 ± 20 nM
same,Kd,[5],90 ± 10 nM
same,Kd,[6],660 ± 80 nM
